Experimental data reported in US20090047262.

Tests used:
[1] = system: T1, FLAG epitope-tagged CIITA IF1 protein (f:CIITA1)
T1 sequence: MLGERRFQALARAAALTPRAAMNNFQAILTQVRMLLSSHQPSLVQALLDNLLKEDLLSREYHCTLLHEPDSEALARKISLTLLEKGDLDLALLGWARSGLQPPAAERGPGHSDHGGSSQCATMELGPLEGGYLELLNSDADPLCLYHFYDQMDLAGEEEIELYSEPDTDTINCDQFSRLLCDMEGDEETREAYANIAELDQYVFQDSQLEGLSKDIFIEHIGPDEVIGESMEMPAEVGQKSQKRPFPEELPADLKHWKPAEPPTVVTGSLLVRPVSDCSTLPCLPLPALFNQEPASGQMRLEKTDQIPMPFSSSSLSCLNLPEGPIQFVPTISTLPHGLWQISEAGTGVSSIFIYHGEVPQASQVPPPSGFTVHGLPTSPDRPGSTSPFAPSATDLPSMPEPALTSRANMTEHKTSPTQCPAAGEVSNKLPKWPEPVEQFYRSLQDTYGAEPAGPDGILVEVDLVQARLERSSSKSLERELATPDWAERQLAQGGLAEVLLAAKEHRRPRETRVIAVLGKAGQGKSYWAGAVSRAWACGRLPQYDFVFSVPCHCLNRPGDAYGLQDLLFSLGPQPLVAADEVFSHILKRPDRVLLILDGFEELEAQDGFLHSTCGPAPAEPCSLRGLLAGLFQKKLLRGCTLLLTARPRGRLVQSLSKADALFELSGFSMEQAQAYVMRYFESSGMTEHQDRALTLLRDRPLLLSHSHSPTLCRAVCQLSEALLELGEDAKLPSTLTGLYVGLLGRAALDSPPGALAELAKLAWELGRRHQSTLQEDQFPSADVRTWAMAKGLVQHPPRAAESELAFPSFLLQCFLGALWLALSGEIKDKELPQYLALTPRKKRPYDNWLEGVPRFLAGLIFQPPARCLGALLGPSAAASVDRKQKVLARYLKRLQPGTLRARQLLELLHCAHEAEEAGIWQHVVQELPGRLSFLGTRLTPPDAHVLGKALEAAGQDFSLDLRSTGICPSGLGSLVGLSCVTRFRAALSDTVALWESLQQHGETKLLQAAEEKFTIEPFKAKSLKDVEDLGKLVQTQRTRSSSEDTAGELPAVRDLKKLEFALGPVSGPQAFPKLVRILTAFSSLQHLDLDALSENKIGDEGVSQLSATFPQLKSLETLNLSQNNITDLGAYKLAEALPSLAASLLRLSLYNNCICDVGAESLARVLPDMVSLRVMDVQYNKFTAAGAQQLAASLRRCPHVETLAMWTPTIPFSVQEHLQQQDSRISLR

[2] = system: mutant f:CIITA1(S357A) protein (FLAG epitope-tagged CIITA isoform 1 with serine 357 changed to alanine)

## Erk1/2 kinase
[1]
  in vitro kinase assay, appearance of the upper (phosphorylated) band: as indicated by the appearance of the upper band, Erk1/2 phosphorylated f:CIITA1 protein
[2]
  in vitro kinase assay, appearance of the upper (phosphorylated) band: Erk1/2 did not phosphorylate the mutant f:CIITA1(S357A) protein, which was confirmed by the absence of the upper band
